Our source for the Ki values is publication PMC2866327 (2010).

This test deals with insulin-degrading enzyme (recombinant human IDE) (human, UniProt P14735 1-1019).

Square brackets hold non-standard residues; d marks the D form. Ends that are not written are not given here.

B1: retro-inverso peptide hydroxamate Xaa-Arg-Tyr with Phe at P1' (peptide)
peptide: Phe-[dR]-[dY]
modifications: not fully specified (residue 1, N-terminus); also: retro-inverso (reversed backbone)
What is called Ki is the equilibrium dissociation constant of an inhibitor or competing ligand from its target. For the molecule B1, the Ki was 20 µM.
